# Results published in patent US20260167731A1 (DOMAIN THERAPEUTICS, published 2026).
# “And” between values parts separate entries of the source, which are not always exact repeats. Equal entries are not always repeated.
# Columns and labels:
# human CCR8 [1] = biological target: T1, human CCR8 (human, UniProt P51685 1-355); experiment: cell-based or functional assay
# human CCR8 [2] = biological target: T1, human CCR8; experiment: cell-based or functional assay; remark: listed apart in the source
# hCCR8 SNAP-tag [3] = biological target: T2, hCCR8 SNAP-tag (human, UniProt P51685 1-355, SNAP-tag labelled with Lumi4-Terbium); experiment: cell-based or functional assay
# human CCR8 [4] = biological target: T1, human CCR8; experiment: cell-based or functional assay; remark: listed apart in the source
# human CCR8 [5] = biological target: T1, human CCR8; experiment: flow cytometry, HUT78 cells (endogenous CCR8)
# Procedure: (§1) The same staining protocol was applied on human CCR8 transfected CHO cell line versus wild type CHO cell line, cutaneous T cell lymphoma HUT78 cell line and human activated T cell model.
# (§2) Briefly, 1·10⁵ cells per well in a 96 well plate were incubated with a dilution of unconjugated anti-CCR8 mAb at 10 μg/mL then diluted at 1/3.33, 4 dilution points (during 30 min at 4° C.). In human activated T cells model, prior to mAb incubation, cells were first incubated with 200 nM of hCCL1 (R&D Systems, Minneapolis, MN, USA) or buffer PBS (Invitrogen by Thermofisher Scientific, Illkirch-Graffenstaden, France) supplemented by 2% Fetal Bovine Serum (Invitrogen by Thermofisher Scientific, Illkirch-Graffenstaden, France) and 2 mM EDTA (Invitrogen by Thermofisher Scientific, Illkirch-Graffenstaden, France) during 1 hour at 4° C. To determine EC50 value, 8 concentrations of anti-CCR8 mAb were tested. Unbound antibodies were washed away with PBS (Invitrogen by Thermofisher Scientific, Illkirch-Graffenstaden, France) supplemented by 2% Fetal Bovine Serum (Invitrogen by Thermofisher Scientific, Illkirch-Graffenstaden, France) and 2 mM EDTA (Invitrogen by Thermofisher Scientific, Illkirch-Graffenstaden, France). Subsequently, cells are centrifuged (5 min at 400 g) and bound antibody is detected with F(ab′)₂-Goat anti-Mouse IgG (H+L) Cross-Adsorbed Secondary Antibody, Alexa Fluor 488 (dilution 1/500) (Invitrogen by Thermofisher Scientific, Illkirch-Graffenstaden, France) or with F(ab′)₂-Goat anti-Human IgG Fc Secondary Antibody, PE (Invitrogen by Thermofisher Scientific, Illkirch-Graffenstaden, France) (dilution 1/1000) at 4° C. for 30 min. Detection reagent is washed away and cells are centrifuged (5 min at 400 g) and resuspended in 30 μL PBS. Bound detection antibody is quantified on a MacsQuant16 (Miltenyi, Gladbach, Germany) (B1 or B2 channel, 5000 events per acquisition). During the experiment, the respective isotype mAb controls (mouse IgG1, mouse IgG2a, mouse IgG2b, mouse IgG3 or human IgG1) (Biolegend, Amsterdam, The Netherlands) are included to exclude any unspecific binding events.
# EC50 values were determined via nonlinear fit “log(agonist)vs.response−Variable slope (four parameters)” function of Graphpad prism. EC50 values were not constantly determined in the same experiments.
# [6] = biological target: pm5, modified CCR8 related peptide (human, sulfated tyrosines at Y15 and Y17); experiment: ELISA on coated CCR8 peptide (500 ng/mL), OD [cont.]
# Sequence of pm5, modified CCR8 related peptide (human, sulfated tyrosines at Y15 and Y17) (peptide, as listed by the source): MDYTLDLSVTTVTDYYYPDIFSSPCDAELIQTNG
# Procedure: (§3) The specific binding properties of antibodies were evaluated by ELISA with coated CCR8 related peptides (500 ng/mL) in carbonate/bicarbonate buffer. Different peptides were used as described in Table 1 (see Example 1). Each anti-CCR8 mAb was tested at 1 μg/mL then diluted at 1/10. After an incubation at room temperature during 90 min, unbound mAbs were removed by washings. […] After washings, 3,3′,5,5′-tetramethylbenzidine (TMB) (Interchim, Montlugon, France) was added for 15 min. Then the optical density (OD) was determined by using a multiplate reader (Tecan, Lyon, France) and correlated with mAb reactivity on the panel of coated peptides.
# [7] = biological target: pm6, modified CCR8 related peptide (human, sulfated tyrosines at Y16 and Y17); experiment: as above
# Sequence of pm6, modified CCR8 related peptide (human, sulfated tyrosines at Y16 and Y17) (peptide, as listed by the source): as above
# Procedure: as §3
# [8] = biological target: pm8, modified CCR8 related peptide (human, sulfated tyrosines at Y15, Y16 and Y17); experiment: as above
# Sequence of pm8, modified CCR8 related peptide (human, sulfated tyrosines at Y15, Y16 and Y17) (peptide, as listed by the source): as above
# Procedure: as §3
# [9] = biological target: T3, pwt1, unmodified CCR8 related peptide (human, none (non-sulfated Y15, Y16, Y17)); experiment: as above
# T3 construct: First 34 amino acids of human CCR8, synthetic; also called unmodified peptide
# T3 sequence (peptide, as listed by the source): as above
# Procedure: as §3
# [10] = biological target: pm1, modified CCR8 related peptide (human, sulfated tyrosine at Y15); experiment: as above
# Sequence of pm1, modified CCR8 related peptide (human, sulfated tyrosine at Y15) (peptide, as listed by the source): as above
# Procedure: as §3
# [11] = biological target: pm2, modified CCR8 related peptide (human, sulfated tyrosine at Y16); experiment: as above
# Sequence of pm2, modified CCR8 related peptide (human, sulfated tyrosine at Y16) (peptide, as listed by the source): as above
# Procedure: as §3
# [12] = biological target: pm3, modified CCR8 related peptide (human, sulfated tyrosine at Y17); experiment: as above
# Sequence of pm3, modified CCR8 related peptide (human, sulfated tyrosine at Y17) (peptide, as listed by the source): as above
# Procedure: as §3
# [13] = biological target: pm4, modified CCR8 related peptide (human, sulfated tyrosines at Y15 and Y16); experiment: as above
# Sequence of pm4, modified CCR8 related peptide (human, sulfated tyrosines at Y15 and Y16) (peptide, as listed by the source): as above
# Procedure: as §3
# hCCR8 SNAP-tag [14] = biological target: T2, hCCR8 SNAP-tag; experiment: HTRF Tag-lite, inhibition of hCCL1-AF647 binding to SNAP-tag hCCR8 on HEK-293
# Procedure: The inhibition of CCL1 binding to hCCR8 was evaluated with the Tag-Lite® technology from Cisbio (Revvity). Human CCR8 is engineered with a SNAP-tag at the N-terminus of the GPCR. hCCR8 SNAP-tag is transiently transfected on HEK-293 cell line using FuGene® (Promega, Madison, WI, USA). 48 hours after transfection, cells are labeled with the substrate Lumi4-Terbium® (Cisbio, Codolet, France) which covalently reacts with the SNAP-tag, for 1 h at 37° C. […] The Kd is previously obtained in a saturation binding assay on the same cells. […] The plate is next incubated at 21° C. for 2 h. Detection of HTRF signal is performed on the multiplate reader EnVision (PerkinElmer, Waltham, MA, USA). The HTRF (665/620) ratio is calculated by EnVision software, the data exported are considered as the total binding. The specific binding is calculated then by subtracting the non-specific signal from the total binding. The Ki and IC₅₀are calculated using the “One site—Fit Ki” and “One site—FitlogIC50” from GraphPad Prism 9 (Graphpad Software, San Diego, CA, USA), respectively.
# human CCR8 [15] = biological target: T1, human CCR8; experiment: cell-based or functional assay; remark: listed apart in the source
# human CCR8 [16] = biological target: T1, human CCR8; experiment: cell-based or functional assay; remark: listed apart in the source
# human CCR8 [17] = biological target: T1, human CCR8; experiment: flow cytometry, hCCR8 transfected CHOK1 cells
# Procedure: as §1, §2
# human CCR8 [18] = biological target: T1, human CCR8; experiment: flow cytometry, inhibition of hCCL1-AF647 binding to hCCR8 CHO cells
# Procedure: The hCCR8 transfected CHO cell line was dispatched at a density of 1·10⁵ per well in a 96-well plate. Cells were incubated for 30 min at 4° C. with or without anti-CCR8 mAb tested at 10 μg/mL then diluted at 1/3. Unbound antibodies were washed away with PBS (Gibco, Villebon-sur-Yvette, France) supplemented by 2% Fetal Bovine Serum (Invitrogen by Thermofisher Scientific, Illkirch-Graffenstaden, France) and 2 mM EDTA. […] After washing unbound ligands, CCL1 bound detection is quantified on a MacsQuant16 (Miltenyi, Gladbach, Germany) (R1 channel, 5 000 events per acquisition).
# For IC₅₀ determination, a concentration response curve is performed using 8 concentrations of mAb. Curves are fitted and IC₅₀ of CCL1 binding blocking activity is calculated using the sigmoidal dose-response (variable slope) model on GraphPad Prism 9 (GraphPad Software, San Diego, CA, USA).
Binder,"IC50, CCL1 induced hCCR8 Gi2 signaling (BRET, HEK-293) (human CCR8 [1])","hCCL1 (100 nM) residual response in %, Protocol #2, mAb 0.08 µg/mL (0.53 nM) (human CCR8 [2])","hCCL1 (100 nM) residual response in %, Protocol #2, mAb 0.4 µg/mL (2.67 nM) (human CCR8 [2])","hCCL1 (100 nM) residual response in %, Protocol #2, mAb 10 µg/mL (66.7 nM) (human CCR8 [2])","hCCL1 (100 nM) residual response in %, Protocol #3, mAb 0.05 µg/mL (0.33 nM) (human CCR8 [2])","hCCL1 (100 nM) residual response in %, Protocol #3, mAb 0.5 µg/mL (3.33 nM) (human CCR8 [2])","hCCL1 (100 nM) residual response in %, Protocol #3, mAb 5 µg/mL (33.3 nM) (human CCR8 [2])",binding result [6],binding result [7],binding result [8],binding result [9],binding result [10],binding result [11],binding result [12],binding result [13],"Top plateau values in presence of 5 µg/mL mAb (% of hCCL1 (100 nM)), protocol #3 (human CCR8 [15])",% positive cells (human CCR8 [17]),MFI fold change to isotype ctrl (human CCR8 [17]),IC50 (human CCR8 [18]),other results
"humanized anti-CCR8 mAb 2-14 (antibody, human IgG1, kappa, V domains shown, Humanized, human IgG1 / kappa) VH: QVQLVQSGPEVVKPGASVKVSCKTSGYTFTEYTIHWVRQAPGQSLEWVGGINPNNGNTRYDQKFQGRVTITRDKSASTAYMELRSLTSEDTAVYYCARVARSSGSGPYAMDYWGQGTTVTVSS VL: DVVMTQSPLSLPVTLGDQASISCRCSQSLLHTNGDTYLHWYLQRPGQSPRLLIYKVSNRFSGVPDRFSGSGSGTDFTLKISRVEAEDVGVYFCSQSTHVPYTFGGGTKVEIKR",0.022 µg/mL and 0.147 nM,67%,55%,32%,86%,60%,42%,binds,binds,binds,binds,binds,binds,binds,binds,,,,,"% of internalization at 1 µg/ml (CCL1 at 300 nM = 100%), HTRF (hCCR8 SNAP-tag [3]): 44%; % of internalization at 10 µg/ml (CCL1 at 300 nM = 100%), HTRF (hCCR8 SNAP-tag [3]): 29%; ADCC % Max lysis, HUT78 targets, NK cells Donor 3 (human CCR8 [4]): 15%; ADCC % Max lysis, HUT78 targets, NK cells Donor 4 (human CCR8 [4]): 16%; ADCC EC50, HUT78 targets, NK cells Donor 3 (human CCR8 [4]): 0.505 nM; ADCC EC50, HUT78 targets, NK cells Donor 4 (human CCR8 [4]): 0.573 nM; % of labelled cells (human CCR8 [5]): 96%; IC50 (hCCR8 SNAP-tag [14]): 0.04 mg/L; Ki (hCCR8 SNAP-tag [14]): 0.02 mg/L"
"anti-CCR8 mAb 2-11 (antibody, V domains shown) VH: EVQLQQSGPELVKPGASVKISCKASVYSFTGSYMHWVKQSHVKSLEWIGRINPYNGATSYNQNFKDKASLTVDKSSSTAYMELHSLTSEDSAVYYCATTLLRLLDYWGQGTTLTVSS VL: DIVMTQAAFSNPVTLGTSASISCRSSKSLLHSNGITYLYWYLQKPGQSPQLLIYQMSNLASGVPDRFSSSGSGTDFTLRISRVEAEDVGVYYCAQNLELPWTFGGGTKLEIK",0.092 µg/mL and 0.616 nM,97%,96%,84%,96%,81%,73%,,,,,,,,,292%,34.7%,2.34 fold,6.41 µg/mL and 43 nM,"IC50, CCL1 induced hCCR8 Gi2 signaling (BRET) at pH 6.5 (human CCR8 [16]): 0.162 µg/ml and 1.08 nM; IC50, CCL1 induced hCCR8 Gi2 signaling (BRET) at pH 7.4 (human CCR8 [16]): 0.152 µg/ml and 1.01 nM"
"anti-CCR8 mAb 2-4 (antibody, V domains shown) VH: EVQLQQSGPELVKPGASVKISCKTSGYTFTEYTIHWVKQSHGESLEWVGGINPNNGNTRYDQKFKGKATLTIDKSSSPAYMELRSLTSEDSAVYYCARVARSSGSGPYAMDYWGQGTSVTVSS VL: DVVMTQTPLSLPVSLGDQASISCRCTQSLLHTNGDTYLHWYLQKPGQSPKLLIYKVSNRFSGVPDRFSGSGSGTDFTLKISRVEAEDLGVYFCSQSTHVPYTFGGGTKLEIK",0.046 µg/mL and 0.306 nM,104%,46%,28%,80%,57%,45%,binds,binds,binds,binds,binds,binds,binds,binds,855%,56.2%,4.78 fold,0.6 µg/mL and 4.01 nM,
